Test results reported in publication PMC10187114.

Legend:
[1] = target: VPS29 (recombinant) (human) (UniProt Q9UBQ0); experiment: ITC; VPS35L peptides at 600 μM titrated into 20 μM VPS29, 100 mM Tris pH 7.4, 300 mM NaCl, 25°C, single site model
VPS35L (human) = VPS35L (human) (UniProt Q7Z3J2); experiment: SEC; Retriever co-expressed in insect cells, affinity purification then size-exclusion chromatography (Superdex200, 25 mM HEPES pH 8.0, 300 mM NaCl, 2 mM β-mercaptoethanol, 4°C)

Row | Substance | Kd [1] | stoichiometry N (VPS35L (human))
1 | VPS35L (28-37) peptide (from UniProt Q7Z3J2 28-37) | 6.8 µM | –
2 | 3xStrepII-VPS26C (from UniProt O14972 1-297) (natural protein) | – | 1
